Test results published in US20250339504A1 (published 2025).
Residue numbers refer to the chain shown, from its start.

Tests used:
[1] = target: T1, GPC3 peptide on HLA-A2 (human); assay: multimer staining
T1 peptide: FVGEFFTDV

[2] = target: T2, GPC3 peptide on HLA-A*24:02 (human); assay: multimer staining
T2 peptide: EYILSLEEL

[3] = target: T2, GPC3 peptide on HLA-A*24:02; assay: cytokine release
[4] = target: T3, FOXM1 peptide on HLA-A*24:02 (human); assay: multimer staining
T3 peptide: IYTWIEDHF

[5] = target: EPHB4 peptide on HLA-A*02:01 (human); assay: activation reporter or marker

B1: 52B11 (TCR, V domains shown)
Valpha: QKEVEQDPGPLSVPEGAIVSLNCTYSNSAFQYFMWYRQYSRKGPELLMYTYSSGNKEDGRFTAQVDKSSKYISLFIRDSQPSDSATYLCAQRIVMEYGNKLVFGAGTILRVKS
Vbeta: EPEVTQTPSHQVTQMGQEVILRCVPISNHLYFYWYRQILGQKVEFLVSFYNNEISEKSEIFDDQFSVERPDGSNFTLKIRSTKLEDSAMYFCASSEGAEAFFGQGTRLTVV
[1]
  binding result: recognises

B2: ⑧2D9 (TCR, V domains shown)
Valpha: QKEVEQNSGPLSVPEGAIASLNCTYSDRGSQSFFWYRQYSGKSPELIMFIYSNGDKEDGRFTAQLNKASQYVSLLIRDSQPSDSATYLCAVNMDGNNRLAFGKGNQVVVIP
Vbeta: DAGITQSPRHKVTETGTPVTLRCHQTENHRYMYWYRQDPGHGLRLIHYSYGVKDTDKGEVSDGYSVSRSKTEDFLLTLESATSSQTSVYFCASVYGSEAFFGQGTRLTVV
[1]
  binding result: recognises

B3: i2B7 (TCR, V domains shown)
Valpha: AQSVAQPEDQVNVAEGNPLTVKCTYSVSGNPYLFWYVQYPNRGLQFLLKYITGDNLVKGSYGFEAEFNKSQTSFHLKKPSALVSDSALYFCAVNPTGGGNKLTFGTGTQLKVEL
Vbeta: DARVTQTPRDKVTEMGQEVTMRCQPILGHNTVFWYRQTMMQGLELLAYFRNRAPLDDSGMPKDRFSAEMPDATLATLKIQPSEPRDSAVYFCASGLGGNQPQHFGDGTRLSIL
[1]
  binding result: recognises

B4: ⑨5C6 (TCR, V domains shown)
Valpha: AQSVTQPDIHITVSEGASLELRCNYSYGATPYLFWYVQSPGQGLQLLLKYFSGDTLVQGIKGFEAEFKRSQSSFNLRKPSVHWSDAAEYFCAVGSPSGYSTLTFGKGTMLLVSP
Vbeta: EAQVTQNPRYLITVTGKKLTVTCSQNMNHEYMSWYRQDPGLGLRQIYYSMNVEVTDKGDVPEGYKVSRKEKRNFPLILESPSPNQTSLYFCASSPTRFYEQYFGPGTRLTVT
[1]
  binding result: recognises

B5: G9 (TCR, V domains shown)
Valpha: KQEVTQIPAALSVPEGENLVLNCSFTDSAIYNLQWFRQDPGKGLTSLLLIQSSQREQTSGRLNASLDKSSGRSTLYIAASQPGDSATYLCAVTRRALTFGSGTRLQVQP
Vbeta: KAGVTQTPRYLIKTRGQQVTLSCSPISGHRSVSWYQQTPGQGLQFLFEYFSETQRNKGNFPGRFSGRQFSNSRSEMNVSTLELGDSALYLCASSVTSGRTHTDTQYFGPGTRLTVL
[2]
  binding result: recognises

B6: (46)2A6 (TCR, V domains shown)
Valpha: RKEVEQDPGPFNVPEGATVAFNCTYSNSASQSFFWYRQDCRKEPKLLMSVYSSGNEDGRFTAQLNRASQYISLLIRDSKLSDSATYLCKISGGYNKLIFGAGTRLAVHP
Vbeta: DSGVTQTPKHLITATGQRVTLRCSPRSGDLSVYWYQQSLDQGLQFLIQYYNGEERAKGNILERFSAQQFPDLHSELNLSSLELGDSALYFCASSVGGGLGTEAFFGQGTRLTVV
[2]
  binding result: recognises

B7: il2G6, TRA of SEQ ID NO: 129 (TCR, V domains shown)
Valpha: LAKTTQPISMDSYEGQEVNITCSHNNIATNDYITWYQQFPSQGPRFIIQGYKTKVTNEVASLFIPADRKSSTLSLPRVSLSDTAVYYCLVGHSGNTPLVFGKGTRLSVIA
Vbeta: B6 Vbeta with L99A, T101N, E102T, A103I, F104Y, Q107E, T109S, R110W
[2]
  binding result: recognises

B8: il2G6, TRA of SEQ ID NO: 130 (TCR, V domains shown)
Valpha: RKEVEQDPGPFNVPEGATVAFNCTYSNSASQSFFWYRQDCRKEPKLLMSVYSSGNEDGRFTAQLNRASQYISLLIRDSKLSDSATYLCVVNTGRRALTFGSGTRLQVQP
Vbeta: B6 Vbeta with L99A, T101N, E102T, A103I, F104Y, Q107E, T109S, R110W
[2]
  binding result: recognises

B9: eC1 (TCR, V domains shown)
Valpha: GESVGLHLPTLSVQEGDNSIINCAYSNSASDYFIWYKQESGKGPQFIIDIRSNMDKRQGQRVTVLLNKTVKHLSLQIAATQPGDSAVYFCAGRTGFQKLVFGTGTRLLVSP
Vbeta: B6 Vbeta with G100Y, T101N, A103Q, Q107P, V114L
[2]
  binding result: recognises

B10: eC7 (TCR, V domains shown)
Valpha: SQQGEEDPQALSIQEGENATMNCSYKTSINNLQWYRQNSGRGLVHLILIRSNEREKHSGRLRVTLDTSKKSSSLLITASRAADTASYFCAVRYSSASKIIFGSGTRLSIRP
Vbeta: B6 Vbeta with V95A, L99S, G100N, T101N, A103Q, Q107P, V114L
[2]
  binding result: recognises

B11: eD3 (TCR, V domains shown)
Valpha: RKEVEQDPGPFNVPEGATVAFNCTYSNSASQSFFWYRQDCRKEPKLLMSVYSSGNEDGRFTAQLNRASQYISLLIRDSKLSDSATYLCVVKGGNNFNKFYFGSGTKLNVKP
Vbeta: NAGVTQTPKFQVLKTGQSMTLQCAQDMNHNSMYWYRQDPGMGLRLIYYSASEGTTDKGEVPNGYNVSRLNKREFSLRLESAAPSQTSVYFCASSHRVNSNQPQHFGDGTRLSIL
[2]
  binding result: recognises

B12: i7E6, TRA of SEQ ID NO: 138 (TCR, V domains shown)
Valpha: AQRVTQPEKLLSVFKGAPVELKCNYSYSGSPELFWYVQYSRQRLQLLLRHISRESIKGFTADLNKGETSFHLKKPFAQEEDSAMYYCALANQAGTALIFGKGTTLSVSS
Vbeta: B6 Vbeta with V95P, L99A, G100S, T101S, E102P, A103L, F104H, Q107N, V114T
[2]
  binding result: recognises

B13: i7E6, TRA of SEQ ID NO: 139 (TCR, V domains shown)
Valpha: KQEVTQIPAALSVPEGENLVLNCSFTDSAIYNLQWFRQDPGKGLTSLLLIQSSQREQTSGRLNASLDKSSGRSTLYIAASQPGDSATYLCAVKRRAAGNKLTFGGGTRVLVKP
Vbeta: B6 Vbeta with V95P, L99A, G100S, T101S, E102P, A103L, F104H, Q107N, V114T
[2]
  binding result: recognises

B14: i2F3 (TCR, V domains shown)
Valpha: RKEVEQDPGPFNVPEGATVAFNCTYSNSASQSFFWYRQDCRKEPKLLMSVYSSGNEDGRFTAQLNRASQYISLLIRDSKLSDSATYLCVVNKSWGKLQFGAGTQVVVTP
Vbeta: DSGVTQTPKHLITATGQRVTLRCSPRSGDLSVYWYQQSLDQGLQFLIQYYNGEERAKGNILERFSAQQFPDLHSELNLSSLELGDSALYFCASSAGTSGNEQFFGPGTRLTVL
[2]
  binding result: recognises

B15: i3C2 (TCR, V domains shown)
Valpha: GQNIDQPTEMTATEGAIVQINCTYQTSGFNGLFWYQQHAGEAPTFLSYNVLDGLEEKGRFSSFLSRSKGYSYLLLKELQMKDSASYLCAVRVWKAAGNKLTFGGGTRVLVKP
Vbeta: GAVVSQHPSWVICKSGTSVKIECRSLDFQATTMFWYRQFPKQSLMLMATSNEGSKATYEQGVEKDKFLINHASLTLSTLTVTSAHPEDSSFYICSARRLAGGGNEQFFGPGTRLTVL
[2]
  binding result: recognises

B16: i6E9 (TCR, V domains shown)
Valpha: RKEVEQDPGPFNVPEGATVAFNCTYSNSASQSFFWYRQDCRKEPKLLMSVYSSGNEDGRFTAQLNRASQYISLLIRDSKLSDSATYLCVVNLGNYGQNFVFGPGTRLSVLP
Vbeta: B6 Vbeta with G100S, T101N, A103Q, Q107P, V114L
[2]
  binding result: recognises

B17: e1D8 (TCR, V domains shown)
Valpha: GEDVEQSLFLSVREGDSSVINCTYTDSSSTYLYWYKQEPGAGLQLLTYIFSNMDMKQDQRLTVLLNKKDKHLSLRIADTQTGDSAIYFCAENHSSASKIIFGSGTRLSIRP
Vbeta: B6 Vbeta with G97S, L99R, G100N, T101Y, A103Q, F104Y, Q107P, V114T
[3]
  binding result: recognises

B18: F5 (TCR, V domains shown)
Valpha: KDQVFQPSTVASSEGAVVEIFCNHSVSNAYNFFWYLHFPGCAPRLLVKGSKPSQQGRYNMTYERFSSSLLILQVREADAAVYYCAVNQAGTALIFGKGTTLSVSS
Vbeta: DTEVTQTPKHLVMGMTNKKSLKCEQHMGHRAMYWYKQKAKKPPELMFVYSYEKLSINESVPSRFSPECPNSSLLNLHLHALQPEDSALYLCASSQERTSGRSADTQYFGPGTRLTVL
[4]
  binding result: recognises

B19: ②1E7 (TCR, V domains shown)
Valpha: AQSVSQHNHHVILSEAASLELGCNYSYGGTVNLFWYVQYPGQHLQLLLKYFSGDPLVKGIKGFEAEFIKSKFSFNLRKPSVQWSDTAEYFCAVRHGGTGTASKLTFGTGTRLQVTL
Vbeta: GAVVSQHPSWVICKSGTSVKIECRSLDFQATTMFWYRQFPKQSLMLMATSNEGSKATYEQGVEKDKFLINHASLTLSTLTVTSAHPEDSSFYICSARALGGYTFGSGTRLTVV
[4]
  binding result: recognises

B20: (21)1D5 (TCR, V domains shown)
Valpha: QKEVEQDPGPLSVPEGAIVSLNCTYSNSAFQYFMWYRQYSRKGPELLMYTYSSGNKEDGRFTAQVDKSSKYISLFIRDSQPSDSATYLCAMSGHFNKFYFGSGTKLNVKP
Vbeta: KAGVTQTPRYLIKTRGQQVTLSCSPISGHRSVSWYQQTPGQGLQFLFEYFSETQRNKGNFPGRFSGRQFSNSRSEMNVSTLELGDSALYLCASSLRAGELFFGEGSRLTVL
[4]
  binding result: recognises

B21: 1F5 (TCR, V domains shown)
Valpha: EDQVTQSPEALRLQEGESSSLNCSYTVSGLRGLFWYRQDPGKGPEFLFTLYSAGEEKEKERLKATLTKKESFLHITAPKPEDSATYLCAASNSGGSNYKLTFGKGTLLTVNP
Vbeta: DSGVTQTPKHLITATGQRVTLRCSPRSGDLSVYWYQQSLDQGLQFLIQYYNGEERAKGNILERFSAQQFPDLHSELNLSSLELGDSALYFCASSVDGKGTQYFGPGTRLLVL
[4]
  binding result: recognises

B22: Clone 4, 7, 34 (Table 10) (TCR, V domains shown)
Valpha: GEQVEQRPPHLSVREGDSAFIICTYTDSATAYFYWYKQEPGAGLQLLMSVFSNVDRKEEQGLTVLLNKKDKRLSLNLTAAHPGDSAVYFCAVGNSNNRIFFGDGTQLVVKP
Vbeta: NTKITQSPRYLILGRANKSLECEQHLGHNAMYWYKQSAEKPPELMFLYNLKQLIRNETVPSRFIPECPDSSKLLLHISAVDPEDSAVYFCASSQLGSSAETLYFGSGTRLTVL
[5]
  binding result: recognises
